± gives the uncertainty stated by the source.

The series can be described thus: abundance fitness (aPCA) (normalised: wild type 0, dead -1); higher = more abundant; growth selection in yeast, the domain comes from the species named. Particulars: Homo sapiens.
Take “NEDD4-like E3 ubiquitin-protein ligase WWP2 Y461Q, O00308”: the abundance fitness was -0.671 ± 0.079.
On to “NEDD4-like E3 ubiquitin-protein ligase WWP2 Y461R, O00308”, for which the abundance fitness was -0.762 ± 0.046.
The substance “NEDD4-like E3 ubiquitin-protein ligase WWP2 Y461T, O00308” displayed an abundance fitness of -0.445 ± 0.067.
“NEDD4-like E3 ubiquitin-protein ligase WWP2 Y461V, O00308”: the abundance fitness was -0.529 ± 0.055.
The same measure for “NEDD4-like E3 ubiquitin-protein ligase WWP2 Y461W, O00308”: -0.531 ± 0.053.
The same measure for “NEDD4-like E3 ubiquitin-protein ligase WWP2 Y491A, O00308”: -0.015 ± 0.059; for “NEDD4-like E3 ubiquitin-protein ligase WWP2 Y491C, O00308”: -0.011 ± 0.049.
Take “NEDD4-like E3 ubiquitin-protein ligase WWP2 Y491D, O00308”: the abundance fitness stood at 0.104 ± 0.074.
The same measure for “NEDD4-like E3 ubiquitin-protein ligase WWP2 Y491E, O00308”: 0.033 ± 0.064; for “NEDD4-like E3 ubiquitin-protein ligase WWP2 Y491F, O00308”: 0.035 ± 0.07.
Consider “NEDD4-like E3 ubiquitin-protein ligase WWP2 Y491G, O00308”, for which the abundance fitness is 0.043 ± 0.04.
Substance “NEDD4-like E3 ubiquitin-protein ligase WWP2 Y491H, O00308” gave an abundance fitness of 0.026 ± 0.072.
The same measure for “NEDD4-like E3 ubiquitin-protein ligase WWP2 Y491I, O00308”: 0.022 ± 0.068.
“NEDD4-like E3 ubiquitin-protein ligase WWP2 Y491K, O00308” showed an abundance fitness of -0.061 ± 0.064.
Consider “NEDD4-like E3 ubiquitin-protein ligase WWP2 Y491L, O00308”, for which the abundance fitness was -0.016 ± 0.036.
In turn, “NEDD4-like E3 ubiquitin-protein ligase WWP2 Y491M, O00308” registered an abundance fitness of 0.018 ± 0.061.
The same measure for “NEDD4-like E3 ubiquitin-protein ligase WWP2 Y491N, O00308”: -0.208 ± 0.076; for “NEDD4-like E3 ubiquitin-protein ligase WWP2 Y491P, O00308”: -0.003 ± 0.036; for “NEDD4-like E3 ubiquitin-protein ligase WWP2 Y491Q, O00308”: -0.01 ± 0.051.
Consider “NEDD4-like E3 ubiquitin-protein ligase WWP2 Y491R, O00308”, for which the abundance fitness was -0.001 ± 0.033.
The same measure for “NEDD4-like E3 ubiquitin-protein ligase WWP2 Y491S, O00308”: 0.037 ± 0.038; for “NEDD4-like E3 ubiquitin-protein ligase WWP2 Y491T, O00308”: 0.039 ± 0.037; for “NEDD4-like E3 ubiquitin-protein ligase WWP2 Y491V, O00308”: 0 ± 0.038.
In the case of “NEDD4-like E3 ubiquitin-protein ligase WWP2 Y491W, O00308”, the abundance fitness is -0.104 ± 0.054.
Take “Transcription factor SOX-11 A77S, P35716”: the abundance fitness was 0.01 ± 0.044.
Under “Transcription factor SOX-11 A102Q, P35716” stands -0.628 ± 0.44.
Regarding “Transcription factor SOX-11 A111E, P35716”, the abundance fitness was -0.149 ± 0.094.
As to “Transcription factor SOX-11 A111T, P35716”, the abundance fitness was determined as 0.039 ± 0.048.
“Transcription factor SOX-11 D92N, P35716” came in with an abundance fitness of -0.18 ± 0.054.
The same measure for “Transcription factor SOX-11 D92T, P35716”: -0.223 ± 0.079; for “Transcription factor SOX-11 D115N, P35716”: -0.193 ± 0.16.
Consider “Transcription factor SOX-11 E69K, P35716”, for which the abundance fitness is -0.57 ± 0.29.
“Transcription factor SOX-11 E69V, P35716” had an abundance fitness of -0.401 ± 0.074.
For the substance “Transcription factor SOX-11 E78N, P35716”, the abundance fitness was -0.727 ± 0.09.
The substance “Transcription factor SOX-11 E78V, P35716” came in with an abundance fitness of -0.615 ± 0.066.
“Transcription factor SOX-11 E103S, P35716” came in with an abundance fitness of -0.684 ± 0.072.
“Transcription factor SOX-11 I62D, P35716” displayed an abundance fitness of -0.203 ± 0.065.
With “Transcription factor SOX-11 I67L, P35716”, the abundance fitness was -0.178 ± 0.066.
Take “Transcription factor SOX-11 I79L, P35716”: the abundance fitness is -0.225 ± 0.058.
Substance “Transcription factor SOX-11 I96Q, P35716” registered an abundance fitness of 0.03 ± 0.08.
For “Transcription factor SOX-11 I96R, P35716”, the abundance fitness was -0.209 ± 0.048.
“Transcription factor SOX-11 I99V, P35716” showed an abundance fitness of -0.094 ± 0.05.
“Transcription factor SOX-11 I99Y, P35716” displayed an abundance fitness of -0.01 ± 0.053.
The same measure for “Transcription factor SOX-11 K50R, P35716”: -0.396 ± 0.13; for “Transcription factor SOX-11 K85Q, P35716”: 0.228 ± 0.13.
In turn, “Transcription factor SOX-11 K85S, P35716” registered an abundance fitness of 0.026 ± 0.05.
Take “Transcription factor SOX-11 K91S, P35716”: the abundance fitness is 0.081 ± 0.044.
As for “Transcription factor SOX-11 K91T, P35716”, the abundance fitness worked out at 0.151 ± 0.056.
The substance “Transcription factor SOX-11 K108Q, P35716” came in with an abundance fitness of -0.031 ± 0.13.
In the case of “Transcription factor SOX-11 L90M, P35716”, the abundance fitness was 0.343 ± 0.13.
For the substance “Transcription factor SOX-11 L107K, P35716”, the abundance fitness was -0.218 ± 0.14.
In turn, “Transcription factor SOX-11 M68A, P35716” registered an abundance fitness of -0.247 ± 0.066.
“Transcription factor SOX-11 M68L, P35716”: the abundance fitness is 0.093 ± 0.059.
The same measure for “Transcription factor SOX-11 M74L, P35716”: -0.084 ± 0.056.
The same measure for “Transcription factor SOX-11 M89A, P35716”: 0.098 ± 0.071; for “Transcription factor SOX-11 M110L, P35716”: -0.068 ± 0.053; for “Transcription factor SOX-11 Q70A, P35716”: -0.128 ± 0.065.
Substance “Transcription factor SOX-11 R65K, P35716” showed an abundance fitness of -0.364 ± 0.34.
“Transcription factor SOX-11 R82I, P35716” came in with an abundance fitness of 0.406 ± 0.048.
“Transcription factor SOX-11 R82M, P35716” yielded an abundance fitness of 0.124 ± 0.12.
In the case of “Transcription factor SOX-11 R86S, P35716”, the abundance fitness was -0.07 ± 0.046.
“Transcription factor SOX-11 R100E, P35716” registered an abundance fitness of 0.218 ± 0.12.
Under “Transcription factor SOX-11 S60A, P35716” stands 0.15 ± 0.097; under “Transcription factor SOX-11 S71C, P35716”, -0.055 ± 0.052; under “Transcription factor SOX-11 S93L, P35716”, -0.568 ± 0.099.

For the origin of these results see the Human Domainome abundance scans (Beltran et al. 2025).
